Assay results published in patent US20030064410A1 (ECOLE POLYTECHNIQUE FEDERALE DE LAUSANNE EPFL, published 2003).
Each block holds one binder with its values, some of them ahead of it. Square brackets hold non-standard residues; d marks the D form. Ends that are not written are not given here. sY = N[C@@H](Cc1ccc(OS(=O)(=O)O)cc1)C(=O)O

Assays:
[1] = target: T1, VEGF165 (vascular endothelial cell growth factor, 165 isoform), recombinant from E. coli, refolded dimer (human, UniProt P15692-4 27-191, Example 1: about 4 AMCA coumarins per VEGF165, sites not given; Example 3 screen: biotinylated, sites not given); experiment: on-bead colorimetric screen, about 0.25 nM biotinylated VEGF165 with 1 equivalent of heparin
T1 construct: Tags from the pRSET vector are not mentioned; also called coumerin-VEGF; coumarin-labeled VEGF165
Description: The resin was rinsed with TBS (5×) and 200 μL of 5-bromo-4-chloro-3-indoylphosphate p-toluidine salt/nitro blue tetrazolium chloride (BCIP/NBT) reagent was added to develop a blue/black color where the streptavidin alkaline phosphatase was present. Nonspecific adsorption of the streptavidin alkaline phosphatase was detected as blue/black stained beads. After 15 minutes, the resin was rinsed with TBS (5×) prior to adding 100 μL of about 0.25 nM of biotinylated VEGF₁₆₅ in the presence or absence of 1 or 10 equivalents of heparin sodium salt (isolated from porcine intestinal mucosa) in 400 μL of blocking buffer. The mixture was shaken overnight, the solution removed, the resin washed with TBS (6×), and 1 mL streptavidin alkaline phosphatase (diluted 1:1000 from a 1 mg/mL solution) was added. The streptavidin alkaline phosphatase preferentially attached to beads having VEGF since the VEGF was attached to biotin, which is a ligand for the streptavidin on the streptavidin alkaline phosphatase. After 2 h the solution was removed and rinsed with TBS (5×) and Fast Red substrate (PIERCE) was added to make the presence of the alkaline phosphatase visible by making a red color. Positive beads were those that were stained red. The red beads were selected, and subjected to 8M guanidine-HCl, pH=1.4 for 20 minutes prior to rinsing with H20 (3×) and DMF until residual color was removed. […]

[2] = target: T1, VEGF165 (vascular endothelial cell …); experiment: SPR

T1 sequence (P15692 other isoform, or with tags, fused parts or gaps limits assumed): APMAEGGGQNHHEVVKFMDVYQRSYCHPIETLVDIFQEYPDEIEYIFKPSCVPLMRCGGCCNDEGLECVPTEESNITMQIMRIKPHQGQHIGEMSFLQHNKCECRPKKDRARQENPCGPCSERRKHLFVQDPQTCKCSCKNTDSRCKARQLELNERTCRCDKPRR

Binder: [sY][sY]GG[sY]D[sY]GGGG-{PEGA resin} (not fully specified (N-terminus); printed as Y(SO3)Y(SO3)GGY(SO3)DY(SO3)) [Y(SO3)Y(SO3)GGY(SO3)DY(SO3)-Gly-Gly-Gly-Gly-PEGA bead]
binding result [1]: binds

B2: Y(SO3)Y(SO3)GGY(SO3)DY(SO3)G (peptide)
peptide: [sY][sY]GG[sY]D[sY]G
modifications: not fully specified (N-terminus, C-terminus); printed as Y(SO3)Y(SO3)GGY(SO3)DY(SO3)G
notes: Independently synthesized free peptide used in SPR
Kd [2]: 140 nM

Further lines, results first:

binding result [1]: binds
Binder: F[sY]GG[sY]D[sY]GGGG-{PEGA resin} (not fully specified (N-terminus)) [FY(SO3)GGY(SO3)DY(SO3)-Gly-Gly-Gly-Gly-PEGA bead]

Kd [2]: 3100 nM
B1: SY(SO3)DY(SO3)G (peptide)
peptide: S[sY]D[sY]G
modifications: not fully specified (C-terminus); printed as SY(SO3)DY(SO3)G
notes: as for B2
